Molecular target: target receptor on brush border membrane vesicles (BBMVs) from C. includens (Pseudoplusia includens (C. includens))

## PtIP-65Aa polypeptide (Pteridophyta Insecticidal Protein-65Aa)
  EC50: 14 nM

Source: patent US20250327089A1
